Consider one molecule from publication PMC4486081 (Oncogene, 2015).

The assay addresses Recombinant full length FAK (focal adhesion kinase), GST-tagged, phospho-Y397 (UniProt Q05397 1-1052, phosphotyrosine at 397). The assay can be described thus: co-IP.

Recombinant full length FAK (focal adhesion kinase), GST-tagged, phospho-Y397, sequence (Q05397 whole entry): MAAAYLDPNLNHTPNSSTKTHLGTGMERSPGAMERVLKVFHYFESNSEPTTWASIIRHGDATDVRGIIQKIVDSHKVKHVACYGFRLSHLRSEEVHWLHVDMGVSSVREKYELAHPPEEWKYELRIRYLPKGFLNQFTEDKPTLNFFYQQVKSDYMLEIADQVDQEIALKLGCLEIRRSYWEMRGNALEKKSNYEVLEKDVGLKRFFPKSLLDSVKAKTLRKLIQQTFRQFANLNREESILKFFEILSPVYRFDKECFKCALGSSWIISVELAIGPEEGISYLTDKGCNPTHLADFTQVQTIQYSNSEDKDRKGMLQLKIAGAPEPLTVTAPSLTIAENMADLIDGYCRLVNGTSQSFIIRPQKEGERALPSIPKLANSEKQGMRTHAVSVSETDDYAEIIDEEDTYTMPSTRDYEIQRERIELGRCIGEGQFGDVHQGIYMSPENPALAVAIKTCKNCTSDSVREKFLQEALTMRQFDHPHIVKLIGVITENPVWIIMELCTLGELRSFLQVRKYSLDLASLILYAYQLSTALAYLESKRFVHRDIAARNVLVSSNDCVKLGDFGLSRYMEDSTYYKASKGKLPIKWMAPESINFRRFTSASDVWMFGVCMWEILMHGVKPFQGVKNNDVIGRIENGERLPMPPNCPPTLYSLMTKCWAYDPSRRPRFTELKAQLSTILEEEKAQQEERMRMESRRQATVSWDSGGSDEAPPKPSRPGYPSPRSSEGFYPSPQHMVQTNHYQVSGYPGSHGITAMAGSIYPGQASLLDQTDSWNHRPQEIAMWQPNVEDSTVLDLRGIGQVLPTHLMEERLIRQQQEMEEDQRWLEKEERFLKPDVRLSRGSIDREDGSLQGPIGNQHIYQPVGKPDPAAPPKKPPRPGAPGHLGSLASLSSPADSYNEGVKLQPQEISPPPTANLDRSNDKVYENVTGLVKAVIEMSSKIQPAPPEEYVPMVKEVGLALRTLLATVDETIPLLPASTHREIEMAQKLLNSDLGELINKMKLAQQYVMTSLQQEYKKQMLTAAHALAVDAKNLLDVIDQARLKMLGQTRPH

B1: Recombinant active PKM2 (pyruvate kinase M2), 1-531 aa with N-terminal His-tag (enzyme)
chain: not shown
As for B1, the binding result is “binds”.
